No end group written: not given here.
Key:
[1] = Particle size and polydispersity by dynamic light scattering (DLS); assay type: physicochemical; settings: Zetasizer Nano ZSP, n = 3, mean ± standard deviation; for Diameter: lactosomes in saline
Protocol: (§1) A chloroform solution containing the (PSar25)3-block-PLLA35 (100 nmol, […]) with 4 mol% of TPP (Wako Pure Chemical, Osaka, Japan), 2 mol% of ICG-PLLA34, and 10 mol% maleimide-PSar56-PLLA30 was evaporated under reduced pressure to remove the solvent, forming a thin film on the surface of the glass test tube. Saline (Otsuka normal saline, Otsuka Pharmaceutical Factory, Tokushima, Japan) (50 μl) was added to the test tube, which was then placed at room temperature for 5 min. Then, 50 μl of the saline solution containing 50 nmol CPP and 10 nmol Tris(2-carboxyethyl)phosphine hydrochloride (Nacalai Tesque, Kyoto, Japan) was added to the solution (50 μl) in the test tube and stirred for 12 h at room temperature. In this procedure, lactosome formation and TPP encapsulation by the lactosome were expected. At the same time, maleimide-PSar56-PLLA30 in the lactosome is expected to react with CPP, which contains a cysteine residue at its C-terminus (Table 1). This lactosome mixture was diluted with 400 μl of saline, and passed through a 0.1 μm syringe filter (Membrane Solutions, Dallas, USA) to remove large aggregates. Low molecular weight molecules were excluded from the mixture using Amicon Ultra-0.5 (MWCO 50 kDa, Merck Millipore, Darmstadt, Germany). To analyze concentrations of CPP, TPP and ICG-PLLA34, absorption spectra of the lactosome complexes were measured using a BioSpec spectrometer (Shimadzu, Kyoto, Japan). The particle size, size distribution, polydispersity index (PDI), and zeta potential were measured by Zetasizer Nano ZSP (Malvern Instruments, Malvern, UK).
(§2) The particle sizes of lactosome complexes were measured by dynamic light scattering (DLS). The average particle sizes of the CPP-modified lactosomes were 36–49 nm, which were slightly larger than the unmodified lactosomes (34.2 nm) (Table 2, Figure 1(b)). The zeta potential value of CPP-modified lactosomes (e.g. Pep1-modified lactosome: 1.7 mV, EB1-modified lactosome: 1.6 mV) was higher than that of the unmodified lactosomes (–4.6 mV) (Table 2). The increase in the zeta potential seems to be due to positively charged CPPs.

[2] = Zeta potential by laser Doppler electrophoresis; assay type: physicochemical; settings: Zetasizer Nano ZSP, n = 3, mean ± standard deviation
Protocol: as §1, §2

[3] = system: CHO cells; assay: Cellular uptake of ICG-labeled CPP-modified lactosomes; assay type: cell-based, Chinese hamster; settings: for Cellular uptake level (in words): 10 nmol lactosome complexes, ICG fluorescence intensity divided by cell viability; for Cellular localization (co-localization with LysoTracker Green): 2 μM LysoTracker Green, further 3 h incubation; for ICG fluorescence in cells by fluorescence microscopy, compared to lactosomes without CPP: after washing
Protocol: CHO cells were cultured at 37°C under 5% CO2 in Ham’s F12 medium (Wako Pure Chemical) supplemented with 10% fetal bovine serum (FBS, Nichirei Biosciences, Tokyo Japan), 100 units ml^–1 penicillin (Gibco; Thermo Fisher Scientific, Waltham, Massachusetts, USA), and 100 μg ml^–1 streptomycin (Gibco; Thermo Fisher Scientific). The cells were seeded at a density of 2 × 10^4 cells/well in the 96-well plate, and incubated at 37°C under 5% CO2 overnight. The cells were then incubated at 37°C for 2 h with ICG-labeled lactosomes modified with CPPs (Tat, PTD4, DPV3, MPG^ΔNLS, R9MPG, Pep1, or EB1) dissolved in 200 μl T buffer. The lactosome solution was exchanged for Ham’s F12 medium before the fluorescence imaging. The cellular fluorescence images were obtained by fluorescence microscopy using an Olympus IX71 microscope (Olympus, Tokyo, Japan) with a 40 × objective lens and a U-DM-CY7–3 mirror unit.
LysoTracker Green (Thermo Fisher Scientific) was used for investigating cellular localization of CPP-modified lactosomes. After incubation of the cells with CPP-modified ICG-labeled lactosomes, the lactosome solution was exchanged with Ham’s F12 medium containing 2 μM LysoTracker Green. The cells were further incubated for 3 h. Then, the cell medium was replaced with Ham’s F12 medium, and fluorescence images were obtained.
To evaluate the cellular uptake of the lactosome complexes, the ICG fluorescence images were obtained using an IVIS spectrum system (Xenogen, Hopkinton, Massachusetts USA) with a filter set specific for ICG (excitation at 745 nm and emission at 840 ± 10 nm). The ICG fluorescence intensity was estimated from the photon counts of the images. Then, the cell medium was replaced with solution containing 10 μl of Cell Counting Kit-8 solution (Dojindo, Kumamoto, Japan) and 90 μl of Ham’s F12 medium, and the cells were incubated for an additional 1.5 h. After incubation, the cell viability was measured by absorbance at 450 nm using the microplate reader SunriseR (Tecan Japan, Kanagawa, Japan). Lactosome uptake levels were calculated by dividing ICG fluorescence intensity by cell viability of each well.

[4] = system: NCI-N87 cells; assay: Photoinduced cell killing (PDT treatment) with CPP/TPP-lactosomes, Cell Counting Kit-8; assay type: cell-based, human; settings: 1.5 h at 37°C in T buffer, irradiation 340–390 nm, 200 mW cm^–2, 100 s, then 24 h culture, n = 3
Protocol: NCI-N87 cells were cultured at 37°C under 5% CO2 in RPMI1640 medium (Wako Pure Chemical) supplemented with 10% FBS, 100 units ml^–1 penicillin, and 100 μg ml^–1 streptomycin. NCI-N87 cells were seeded at a density of 4 × 10^4 cells/well in a 96-well plate, and incubated at 37°C for two days before treatment with the lactosome complex. CHO cells were cultured and seeded as described above. The effect of treatment with the TPP-loaded lactosomes and light on cell viability, which is related to PDT efficacy, was evaluated as follows: TPP-loaded lactosomes modified with CPPs (Pep1 or EB1) dissolved in 200 μl of T buffer (20 mM HEPES-KOH (pH 7.4), 115 mM NaCl, 5.4 mM KCl, 1.8 mM CaCl2, 0.8 mM MgCl2, and 13.8 mM glucose) were added to NCI-N87 cells (70% confluent) in the 96-well plate. The cells were incubated at 37°C for 1.5 h. After the lactosome solution was exchanged for T buffer, the cells were irradiated at 340–390 nm at 200 mW cm^–2 for 100 s. After irradiation, the cells were further incubated for 24 h at 37°C under 5% CO2 in the medium. Then, the cell medium was exchanged for the solution containing 10 μl of Cell Counting Kit-8 solution and 90 μl of RPMI1640 medium, and the cells were incubated at 37°C for 2 h. The cell viability was measured by the absorbance at 450 nm using a microplate reader SunriseR. […]

[5] = system: NCI-N87 tumor; assay: In vivo ICG fluorescence imaging of tumor-bearing mice; design: species or system mice (BALB/c nu/nu); settings: tail vein injection, imaging 24 h after injection, IVIS; three mice
Protocol: (§3) Six-week-old male nude mice (BALB/c nu/nu) were purchased from Charles River. Five weeks before the imaging, PANC-1 cells (1 × 10^7) suspended in 100 μl of 50% Matrigel Matrix (Corning Life Sciences, Corning, New York USA) in phosphate buffered saline was subcutaneously inoculated into the front left leg of mice. Two weeks after the first transplantation, NCI-N87 cells (4 × 10^6) were suspended in the Matrigel solution and subcutaneously inoculated into the front right leg of mice. Three weeks after the second transplantation, CPP/TPP/ICG-lactosomes were injected into the tumor-bearing mouse via the tail vein. After 24 h, ICG fluorescence images were taken using the IVIS spectrum system (excitation at 745 nm and emission at 840 ± 10 nm, field of view = 12.5 cm (width and height), f/stop = 2, binning = 4, and exposure time at 3 s). During the imaging process, the mice were anesthetized using 3.0% isoflurane gas in oxygen flow (0.5 l min^–1).

[6] = system: PANC-1 tumor; assay: as above; design: species or system mice (BALB/c nu/nu); settings: tail vein injection, imaging 24 h after injection, IVIS; three mice
Protocol: as §3

Substance	Diameter [1] [nm]	PDI (polydispersity index) [1]	Zeta potential [2] [mV]	other results
GALFLGFLGAAGSTMGAWSQPKSKRKV-C [MPG^ΔNLS, A3B-type lactosome modified with the CPP MPG^ΔNLS via maleimide-PSar56-PLLA30]	49.1±0.5	0.29±0.02	−2.9±0.6	
KETWWETWWTEWSQPKKKRKV-C [Pep1, A3B-type lactosome modified with the CPP Pep1 via maleimide-PSar56-PLLA30]	37.7±0.6	0.13±0.02	1.7±0.1	Cellular uptake level relative to the EB1-modified lactosomes ([3]; 10 nmol lactosome complexes in T buffer, 2 h, 37°C, ICG fluorescence intensity (IVIS, ex 745 nm, em 840 nm) divided by cell viability (Cell Counting Kit-8), mean, n = 4): 0.62; Cellular uptake level (in words) ([3]; 2 h, 37°C): highly internalized; Cellular localization (co-localization with LysoTracker Green) [3]: localized mainly in acidic organelles, including endosomes and lysosomes; ICG fluorescence in cells by fluorescence microscopy, compared to lactosomes without CPP ([3]; 2 h, 37°C): significantly strong ICG fluorescence
KETWWETWWTEWSQPKKKRKV-C [Pep1/TPP-lactosomes, Pep1-modified lactosome loaded with the photosensitizer TPP]				Killing of NCI-N87 cells compared to the experiment without CPP/TPP-lactosomes [4]: 67%
LIRLWSHLIHIWFQNRRLKWKKK-C (LIRLWSHLIHIWFQNRRLKWKKKC; also: C-terminal Cys linked via maleimide to PSar56-PLLA30 (lactosome)) [EB1, A3B-type lactosome modified with the CPP EB1 via maleimide-PSar56-PLLA30]	38.3±0.2	0.12±0.01	1.6±0.3	Cellular uptake level (in words) ([3]; 2 h, 37°C): most abundantly internalized; Cellular localization (co-localization with LysoTracker Green) [3]: localized mainly in acidic organelles, including endosomes and lysosomes; ICG fluorescence in cells by fluorescence microscopy, compared to lactosomes without CPP ([3]; 2 h, 37°C): significantly strong ICG fluorescence
LIRLWSHLIHIWFQNRRLKWKKK-C [EB1/TPP-lactosomes, EB1-modified lactosome loaded with the photosensitizer TPP]				Killing of NCI-N87 cells compared to the experiment without CPP/TPP-lactosomes [4]: 89%
LIRLWSHLIHIWFQNRRLKWKKK-C [EB1/TPP/ICG-lactosomes, lactosome complex containing EB1, TPP, and ICG]				Accumulation in NCI-N87 tumor (ICG fluorescence) [5]: accumulated in NCI-N87 tumors and liver; Accumulation in PANC-1 tumor (ICG fluorescence) [6]: only slight ICG fluorescence was detected
RKKRRRESRKKRRRES-C (RKKRRRESRKKRRRESC; also: C-terminal Cys linked via maleimide to PSar56-PLLA30 (lactosome)) [DPV3, A3B-type lactosome modified with the CPP DPV3 via maleimide-PSar56-PLLA30]	37.0±0.4	0.12±0.01	−3.7±0.3	
RRRRRRRRRGALFLAFLAAALSLMG-C (RRRRRRRRRGALFLAFLAAALSLMGC; also: C-terminal Cys linked via maleimide to PSar56-PLLA30 (lactosome)) [R9MPG, A3B-type lactosome modified with the CPP R9MPG via maleimide-PSar56-PLLA30]	43.9±1.5	0.22±0.01	−2.7±0.9	
YARAAARQARA-C [PTD4, A3B-type lactosome modified with the CPP PTD4 via maleimide-PSar56-PLLA30]	37.0±0.4	0.14±0.02	−4.2±0.3	
YGRKKRRQRRR-C [Tat, A3B-type lactosome modified with the CPP Tat via maleimide-PSar56-PLLA30]	36.2±0.3	0.10±0.01	−3.6±0.1	
